{
  "source": "paper PMC4671958",
  "about": "“Structure of the Helicase Domain of DNA Polymerase Theta Reveals a Possible Role in the Microhomology-Mediated End-Joining Pathway” (Structure(London, England:1993), 2015)",
  "proteins": {"B1": {"name": "DNA polymerase theta helicase domain (Polθ-HLD), residues 67–894 (domain or fragment, human, UniProt O75417 67-894, looked up)", "chain": "DKLLLANWGLPKAVLEKYHSFGVKKMFEWQAECLLLGQVLEGKNLVYSAPTSAGKTLVAELLILKRVLEMRKKALFILPFVSVAKEKKYYLQSLFQEVGIKVDGYMGSTSPSRHFSSLDIAVCTIERANGLINRLIEENKMDLLGMVVVDELHMLGDSHRGYLLELLLTKICYITRKSASCQADLASSLSNAVQIVGMSATLPNLELVASWLNAELYHTDFRPVPLLESVKVGNSIYDSSMKLVREFEPMLQVKGDEDHVVSLCYETICDNHSVLLFCPSKKWCEKLADIIAREFYNLHHQAEGLVKPSECPPVILEQKELLEVMDQLRRLPSGLDSVLQKTVPWGVAFHHAGLTFEERDIIEGAFRQGLIRVLAATSTLSSGVNLPARRVIIRTPIFGGRPLDILTYKQMVGRAGRKGVDTVGESILICKNSEKSKGIALLQGSLKPVRSCLQRREGEEVTGSMIRAILEIIVGGVASTSQDMHTYAACTFLAASMKEGKQGIQRNQESVQLGAIEACVMWLLENEFIQSTEASDGTEGKVYHPTHLGSATLSSSLSPADTLDIFADLQRAMKGFVLENDLHILYLVTPMFEDWTTIDWYRFFCLWEKLPTSMKRVAELVGVEEGFLARCVKGKVVARTERQHRQMAIHKRFFTSLVLLDLISEVPLREINQKYGCNRGQIQSLQQSAAVYAGMITVFSNRLGWHNMELLLSQFQKRLTFGIQRELCDLVRVSLLNAQRARVLYASGFHTVADLARANIVEVEVILKNAVPFKSARKAVDEEEEAVEERRNMRTIWVTGRKGLTEREAAALIVEEARMILQQDLVEM", "notes": "DNA polymerase theta (Polθ, POLQ gene), human, helicase domain, residues 67–894; printed monomer mass 93,080 Da; Tetramer in crystals (by crystallographic symmetry) and in solution; Further construct details may stand in the Supplemental Experimental Procedures; also called Polθ helicase domain; 67–894 construct"}},
  "key": {"[1]": {"biological_target": "the molecule itself", "assay": "SEC-MALS; Viscotek TDA 305 system, Shodex KW-803 silica column; in the absence of nucleotide"}, "[2]": {"biological_target": "the molecule itself", "assay": "AUC; sedimentation velocity, absorbance (280 nm) and interference optics; in the absence of nucleotide"}},
  "note": "Where “and” joins values, the source holds several entries; their conditions need not be identical. Equal entries are not always repeated.",
  "data": [
    {"protein": "B1", "values": [
      {"measurement": "stoichiometry N", "setting": "[1]", "value": "~4"},
      {"measurement": "stoichiometry N", "setting": "[2]", "value": "4 and 3.2"}
    ]}
  ]
}
